Measurements taken from patent US20240425569A1 (VISTERRA, published 2024).
Like-named read-outs stand apart in the source and are kept apart here.

Experiments:
[1] = target: T1, EDIII-DV3 (E protein domain III of dengue virus serotype DV-3) (dengue virus serotype DV-3, UniProt P27915 571-678)
T1 construct: also called DENV-3; EDIII of DV-3

[2] = target: T2, Philippines/1956 (H87)* (serotype III EDIII) (Dengue virus 3)
T2 construct: isolated EDIII protein

[3] = target: T2, Philippines/1956 (H87)* (serotype III …); test: ELISA; row Philippines/1956 (H87)*, serotype III, genotype I
[4] = target: T3, EDIII-DV4 (E protein domain III of dengue virus serotype DV-4) (dengue virus serotype DV-4, UniProt P09866 572-679)
T3 construct: also called DENV-4

[5] = target: T4, EDIII-DV1 (E protein domain III of dengue virus serotype DV-1) (dengue virus serotype DV-1, UniProt P17763 573-680)
T4 construct: also called DENV-1; EDIII of DV-1
T4 chain: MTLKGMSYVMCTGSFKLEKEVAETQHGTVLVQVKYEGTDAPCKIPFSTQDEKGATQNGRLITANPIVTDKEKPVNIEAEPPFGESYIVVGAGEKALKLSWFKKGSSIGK

[6] = target: T3, EDIII-DV4 (E protein domain III of …); test: competition ELISA; column 'EDIII-DV4 [1/7]'
[7] = target: T5, Mexico/2007 (serotype I EDIII)
T5 construct: also called ED3-DV1/Mexico07
T5 E protein domain III (EDIII): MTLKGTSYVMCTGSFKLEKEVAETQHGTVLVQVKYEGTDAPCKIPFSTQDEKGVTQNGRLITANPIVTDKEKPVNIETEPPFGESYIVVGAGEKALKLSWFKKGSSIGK

[8] = target: T6, Nicaragua/2010 (serotype III EDIII)
T6 construct: also called ED3-DV3/Nicaragua10; DENV-3 Nic
T6 E protein domain III (EDIII): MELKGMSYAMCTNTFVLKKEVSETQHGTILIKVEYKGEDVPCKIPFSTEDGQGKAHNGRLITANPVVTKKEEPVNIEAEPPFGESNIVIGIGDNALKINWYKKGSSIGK

[9] = target: T7, EDIII-DV2 (E protein domain III of dengue virus serotype DV-2) (dengue virus serotype DV-2, UniProt P14337 573-677); test: competition ELISA
T7 construct: also called DENV-2; EDIII of DV-2

[10] = target: T8, Singapore/2008 (serotype II EDIII); test: SPR; row Singapore/2008, serotype II, genotype Cosmopolitan
T8 construct: also called ED3-DV2/Sing08; DENV-2 Sing

[11] = target: T9, Singapore/2009 (serotype III EDIII)
T9 construct: also called ED3-DV3/Sing09; DENV-3 Sing
T9 E protein domain III (EDIII): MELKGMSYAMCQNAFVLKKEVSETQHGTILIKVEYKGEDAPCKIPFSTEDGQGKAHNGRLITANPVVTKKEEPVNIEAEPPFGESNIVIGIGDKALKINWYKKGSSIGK

[12] = target: T10, Mexico/1977 (BC287/97)* (serotype IV EDIII) (Dengue virus 4); test: ELISA; row Mexico/1977 (BC287/97)*, serotype IV, genotype IIa
T10 construct: isolated EDIII protein; also called EDIII of DENV-4 Mexico/1997 (BC287/97); DENV-4 BC2

[13] = target: T2, Philippines/1956 (H87)* (serotype III …); test: SPR; row Philippines/1956 (H87)*, serotype III, genotype I
[14] = target: T11, Vietnam/2007 (serotype II EDIII); test: ELISA; row Vietnam/2007, serotype II, genotype Asian II
T11 construct: Genotype Asian II; also called ED3-DV2/Viet07
T11 E protein domain III (EDIII): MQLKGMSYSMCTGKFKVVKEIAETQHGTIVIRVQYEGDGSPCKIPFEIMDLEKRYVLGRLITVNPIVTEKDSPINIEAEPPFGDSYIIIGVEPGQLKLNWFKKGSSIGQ

[15] = target: T12, Puerto Rico/1977 (serotype III EDIII); test: ELISA; row Puerto Rico/1977, serotype III, genotype IV
T12 construct: Genotype IV; also called ED3-DV3/PuertoRico77
T12 E protein domain III (EDIII): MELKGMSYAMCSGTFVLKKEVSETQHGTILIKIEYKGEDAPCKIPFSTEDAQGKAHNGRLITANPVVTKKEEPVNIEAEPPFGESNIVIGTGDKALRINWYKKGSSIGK

[16] = target: T13, Peru/1995 (serotype II EDIII); test: ELISA; row Peru/1995, serotype II, genotype American
T13 construct: also called ED3-DV2/Peru95; DENV-2 Peru

[17] = target: T14, New Caledonia/2009 (serotype IV EDIII); test: ELISA; row New Caledonia/2009, serotype IV, genotype IIb
T14 construct: also called ED3-DV4/NewCal09; DENV-4 NC
T14 E protein domain III (EDIII): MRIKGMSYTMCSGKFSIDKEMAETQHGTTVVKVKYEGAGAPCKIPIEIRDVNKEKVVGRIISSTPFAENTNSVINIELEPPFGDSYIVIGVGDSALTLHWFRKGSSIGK

[18] = target: T13, Peru/1995 (serotype II EDIII); test: Kd table, method not stated; Ag DENV-2 Peru
[19] = target: T15, Malaysia/2005 (serotype I EDIII)
T15 construct: also called ED3-DV1/Malaysia05
T15 E protein domain III (EDIII): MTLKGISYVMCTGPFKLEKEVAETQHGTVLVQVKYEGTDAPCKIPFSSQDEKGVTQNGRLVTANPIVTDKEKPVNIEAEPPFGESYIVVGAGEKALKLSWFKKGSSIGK

B1: antibody D88 (antibody, V domains shown)
VH: QVQLVQSGAEVKKPGASVKVSCKAGFNIKDVYMSWVRQAPEQGLEWMGRIDPENGDTKYDPKLQGRVTMTADTSTNTAYMELRSLRSDDTAVYYCARGWEGFAYWGQGTLVTVSS
VL: DIVMTQSPASLAVSLGERATISCRASENVDKYGNSFMHWYQQKPGQPPKLLIYRASELQWGVPDRFSGSGSGTDFTLTISSLQAEDVAVYYCQRSNEVPWTFGQGTKLEIK
notes: also called mAb D88
Kd [1]: 1 nM
Kd [2]: 1.2 nM
Kd [3]: 1.24 nM
Kd [4]: 3.8 nM
Kd [5]: 0.041 nM
Kd [6]: 3.12 nM
Kd [7]: < 0.1 nM
Kd [8]: 3.3 nM
Kd [9]: < 0.1 nM
Kd [10]: 0.024 nM
Kd [11]: 0.61 nM
Kd [12]: 4.32 nM
Kd [13]: 1 nM
Kd [14]: < 0.1 nM
Kd [15]: 1.36 nM
Kd [16]: < 0.1 nM
Kd [17]: 10.8 nM
Kd [18]: < 0.1 nM
Kd [19]: 0.064 nM
